Reference: paper PMC3543441

Assays:
[1] = molecular target: C-terminal truncated Entamoeba histolytica ornithine decarboxylase (EhODCΔ15) (Entamoeba histolytica); experiment: crystal structure; sitting drop, 20% PEG 3350, 0.2 M LiCl, pH 6.8, 20°C; P212121, four molecules per asymmetric unit; molecular replacement with human ODC (PDB 2ON3); apo-enzyme
[2] = molecular target: C-terminal truncated Entamoeba histolytica ornithine decarboxylase (EhODCΔ15) (Entamoeba histolytica); experiment: SEC; HiLoad 16/60 Superdex 200, purified protein at 5 mg/ml injected, 0.5 ml/min; elution compared with Gel Filtration HMW Calibration kit markers; eluted at 74 ml

## C-terminal truncated Entamoeba histolytica ornithine decarboxylase (EhODCΔ15) (enzyme)
[1]
  stoichiometry N: 4
[2]
  stoichiometry N: 2
